From US20100129369A1 (Eli Lilly, published 2010)

Experiments:
Human c-Met-Flis-Fc ECD [1] = target: T1, Human c-Met-Flis-Fc ECD (human); assay: ELISA, coated ECD-Fc, antibody 0.000 ng/mL
T1 construct: also called human c-Met extracellular domain (ECD)-Fc-Flis fusion; Human cMet-ECD-Fc-Flis
Experimental: (§1) Wells of 96-well EIA/RIA high binding plates (Costar, #2592) are coated with 100 μL of 1 μg/mL human c-Met extracellular domain (ECD)-Fc-Flis fusion (SEQ ID NO:72), RON-ECD-Fc (R&D Systems, #1947-MS), or PlexinA2-ECD-Fc (Abnova, Taipei, Taiwan #H00005362-P01) in coating buffer (BioFX Labs, # COAT-1000-01) overnight at 4° C. […] After the plates are washed, 100 μL/well of substrate solution (BioFx, #TMBW-1000-01) are added and the plates are incubated for 10 min. at room temperature. 100 μL/well of stop solution (BioFx, # LSTP-1000-01) are added to stop the reaction. The colorimetric signals are developed and read at 450 nm using a SpectraMax 190 plate reader (Molecular Devices, Sunnyvale, Calif.). c-Met antibody binding to c-Met, RON and PlexinA2 ECDs is proportional to color signal production.

Human c-Met-Flis-Fc ECD [2] = target: T1, Human c-Met-Flis-Fc ECD; assay: ELISA, coated ECD-Fc, antibody 100000.000 ng/mL
Experimental: as §1

Rat c-Met-Flis-Fc ECD = target: T2, Rat c-Met-Flis-Fc ECD (rat); assay: SPR Biacore, antibody captured, ECD-Fc analyte, 1:1 model
T2 construct: also called Rat cMet-ECD-Fc-Flis; rat c-Met ECD
Experimental: (§2) A Biacore® 2000 instrument is used to measure the binding kinetics of c-Met antibodies to human, cynomolgus monkey, and rat c-Met ECDs. Measurements are performed at 25° C. Samples are dissolved in HBS-EP buffer (150 mM sodium chloride, 3 mM EDTA, 0.005% (w/v) surfactant P-20, and 10 mM N-2-hydroxyethylpiperazine-N′-2-ethanesulfonic acid (HEPES) at pH 7.4; #BR-1001-88).
(§3) Binding is evaluated using multiple cycles. Each cycle is performed at a flow rate of 50 μL/min., and consists of the following steps: injection of about 10 μL of a c-Met antibody at 10 μg/mL aiming at a capture of 40-100 RUs, injection of 250 μL of human, cynomolgus, or rat c-Met-Flis-Fc ECD (starting at 100 nM and using two-fold serial dilutions for each cycle) followed by 20 min. for dissociation, and regeneration using about 30 μL of 10 mM glycine hydrochloride, pH 1.5. Association and dissociation rates for each cycle are evaluated using a “1:1 (Langmuir) binding” model in the BIAevaluation software, version 4.1.

Human c-Met-Flis-Fc ECD [3] = target: T1, Human c-Met-Flis-Fc ECD; assay: as above
Experimental: as §2, §3

[4] = target: T3, Cynomolgus Monkey c-Met-Flis-Fc ECD (cynomolgus monkey); assay: as above
T3 construct: also called Cynomolgus Monkey cMet-ECD-Fc-Flis; cynomolgus monkey c-Met ECD
Experimental: as §2, §3

Human c-Met-Flis-Fc ECD [5] = target: T1, Human c-Met-Flis-Fc ECD; assay: ELISA, coated ECD-Fc, antibody 0.357 ng/mL
Experimental: as §1

Human c-Met-Flis-Fc ECD [6] = target: T1, Human c-Met-Flis-Fc ECD; assay: ELISA, coated ECD-Fc, antibody 2.143 ng/mL
Experimental: as §1

Human c-Met-Flis-Fc ECD [7] = target: T1, Human c-Met-Flis-Fc ECD; assay: ELISA, coated ECD-Fc, antibody 0.002 ng/mL
Experimental: as §1

Human c-Met-Flis-Fc ECD [8] = target: T1, Human c-Met-Flis-Fc ECD; assay: ELISA, coated ECD-Fc, antibody 16666.667 ng/mL
Experimental: as §1

Human c-Met-Flis-Fc ECD [9] = target: T1, Human c-Met-Flis-Fc ECD; assay: ELISA, coated ECD-Fc, antibody 462.963 ng/mL
Experimental: as §1

Human c-Met-Flis-Fc ECD [10] = target: T1, Human c-Met-Flis-Fc ECD; assay: ELISA, coated ECD-Fc, antibody 2777.778 ng/mL
Experimental: as §1

Human c-Met-Flis-Fc ECD [11] = target: T1, Human c-Met-Flis-Fc ECD; assay: ELISA, coated ECD-Fc, antibody 77.160 ng/mL
Experimental: as §1

Human c-Met-Flis-Fc ECD [12] = target: T1, Human c-Met-Flis-Fc ECD; assay: ELISA, coated ECD-Fc, antibody 0.010 ng/mL
Experimental: as §1

Human c-Met-Flis-Fc ECD [13] = target: T1, Human c-Met-Flis-Fc ECD; assay: ELISA, coated ECD-Fc, antibody 0.060 ng/mL
Experimental: as §1

Human c-Met-Flis-Fc ECD [14] = target: T1, Human c-Met-Flis-Fc ECD; assay: ELISA, coated ECD-Fc, antibody 12.860 ng/mL
Experimental: as §1

human c-Met ECD-Fc-Flis [15] = target: T4, human c-Met ECD-Fc-Flis (human); assay: HGF-blocking ELISA: HGF signal on coated c-Met ECD-Fc-Flis; Ab 122.07 ng/mL
T4 construct: c-Met ECD fused to Fc with flag- and His-tag at the C-terminus; also called human c-Met extracellular domain (ECD)-Fc-Flis fusion; human c-Met-Flis-Fc ECD
Experimental: (§4) Wells of 96-well EIA/RIA high binding plates (Costar, #2592) are coated with 100 μL of human c-Met ECD-Fc-Flis (SEQ ID NO:72) (2 μg/mL) in Dulbecco's phosphate buffered saline (DPBS) overnight at room temperature; washed four times with wash buffer (Tris-buffered saline, pH 8.0, with 0.05% (v/v) polysorbate 20 (TWEEN®-20) (TBS-T) (BioFX Labs, # WSHW-1000-01) in a plate washer; blocked by adding 300 μL of blocking buffer (TBS-T plus 1% (w/v) bovine serum albumin (BSA) (Jackson Immuno, #001-000-162); and incubating for 60 min. at 37° C. Blocking buffer is then removed from the wells and 50 μL of antibodies in blocking buffer at final concentrations as indicated in Table 7 are added into each well, respectively. […] The plates with c-Met antibodies are incubated for 90 min. at 37° C. […] The wells are then washed four times with TBS-T in a plate washer. […] The plates are incubated for 90 min. at room temperature. The wells are again washed four times with TBS-T in a plate washer. 100 μL of a 1:200 dilution of streptavidin-horseradish peroxidase (HRP) (R&D Systems, DY998) in blocking buffer are added to each well. The plates are incubated for 30 min. at room temperature. The wells are washed four times with TBS-T in a plate washer. 100 μL/well of substrate solution (BioFx, #TMBW-1000-01) are then added, and the plates are incubated for 10 min. at room temperature. To stop the reaction, 100 μL/well of stop solution (BioFx, # LSTP-1000-01) are added. The samples are read at a wavelength of 450-570 nm on a microplate reader (Spectra, MAX 190) and no background is subtracted.

human c-Met ECD-Fc-Flis [16] = target: T4, human c-Met ECD-Fc-Flis; assay: HGF-blocking ELISA: HGF signal on coated c-Met ECD-Fc-Flis; Ab 0.00 ng/mL (HGF only)
Experimental: as §4

human c-Met ECD-Fc-Flis [17] = target: T4, human c-Met ECD-Fc-Flis; assay: HGF-blocking ELISA: HGF signal on coated c-Met ECD-Fc-Flis; Ab 7812.50 ng/mL
Experimental: as §4

human c-Met ECD-Fc-Flis [18] = target: T4, human c-Met ECD-Fc-Flis; assay: HGF-blocking ELISA: HGF signal on coated c-Met ECD-Fc-Flis; Ab 488.28 ng/mL
Experimental: as §4

human c-Met ECD-Fc-Flis [19] = target: T4, human c-Met ECD-Fc-Flis; assay: HGF-blocking ELISA: HGF signal on coated c-Met ECD-Fc-Flis; Ab 0.48 ng/mL
Experimental: as §4

human c-Met ECD-Fc-Flis [20] = target: T4, human c-Met ECD-Fc-Flis; assay: HGF-blocking ELISA: HGF signal on coated c-Met ECD-Fc-Flis; Ab 1.91 ng/mL
Experimental: as §4

human c-Met ECD-Fc-Flis [21] = target: T4, human c-Met ECD-Fc-Flis; assay: HGF-blocking ELISA: HGF signal on coated c-Met ECD-Fc-Flis; Ab 125000.00 ng/mL
Experimental: as §4

human c-Met ECD-Fc-Flis [22] = target: T4, human c-Met ECD-Fc-Flis; assay: HGF-blocking ELISA: HGF signal on coated c-Met ECD-Fc-Flis; Ab 1953.13 ng/mL
Experimental: as §4

human c-Met ECD-Fc-Flis [23] = target: T4, human c-Met ECD-Fc-Flis; assay: HGF-blocking ELISA: HGF signal on coated c-Met ECD-Fc-Flis; Ab 30.52 ng/mL
Experimental: as §4

human c-Met ECD-Fc-Flis [24] = target: T4, human c-Met ECD-Fc-Flis; assay: HGF-blocking ELISA: HGF signal on coated c-Met ECD-Fc-Flis; Ab 7.63 ng/mL
Experimental: as §4

T2 sequence (chain, as listed by the source limits assumed): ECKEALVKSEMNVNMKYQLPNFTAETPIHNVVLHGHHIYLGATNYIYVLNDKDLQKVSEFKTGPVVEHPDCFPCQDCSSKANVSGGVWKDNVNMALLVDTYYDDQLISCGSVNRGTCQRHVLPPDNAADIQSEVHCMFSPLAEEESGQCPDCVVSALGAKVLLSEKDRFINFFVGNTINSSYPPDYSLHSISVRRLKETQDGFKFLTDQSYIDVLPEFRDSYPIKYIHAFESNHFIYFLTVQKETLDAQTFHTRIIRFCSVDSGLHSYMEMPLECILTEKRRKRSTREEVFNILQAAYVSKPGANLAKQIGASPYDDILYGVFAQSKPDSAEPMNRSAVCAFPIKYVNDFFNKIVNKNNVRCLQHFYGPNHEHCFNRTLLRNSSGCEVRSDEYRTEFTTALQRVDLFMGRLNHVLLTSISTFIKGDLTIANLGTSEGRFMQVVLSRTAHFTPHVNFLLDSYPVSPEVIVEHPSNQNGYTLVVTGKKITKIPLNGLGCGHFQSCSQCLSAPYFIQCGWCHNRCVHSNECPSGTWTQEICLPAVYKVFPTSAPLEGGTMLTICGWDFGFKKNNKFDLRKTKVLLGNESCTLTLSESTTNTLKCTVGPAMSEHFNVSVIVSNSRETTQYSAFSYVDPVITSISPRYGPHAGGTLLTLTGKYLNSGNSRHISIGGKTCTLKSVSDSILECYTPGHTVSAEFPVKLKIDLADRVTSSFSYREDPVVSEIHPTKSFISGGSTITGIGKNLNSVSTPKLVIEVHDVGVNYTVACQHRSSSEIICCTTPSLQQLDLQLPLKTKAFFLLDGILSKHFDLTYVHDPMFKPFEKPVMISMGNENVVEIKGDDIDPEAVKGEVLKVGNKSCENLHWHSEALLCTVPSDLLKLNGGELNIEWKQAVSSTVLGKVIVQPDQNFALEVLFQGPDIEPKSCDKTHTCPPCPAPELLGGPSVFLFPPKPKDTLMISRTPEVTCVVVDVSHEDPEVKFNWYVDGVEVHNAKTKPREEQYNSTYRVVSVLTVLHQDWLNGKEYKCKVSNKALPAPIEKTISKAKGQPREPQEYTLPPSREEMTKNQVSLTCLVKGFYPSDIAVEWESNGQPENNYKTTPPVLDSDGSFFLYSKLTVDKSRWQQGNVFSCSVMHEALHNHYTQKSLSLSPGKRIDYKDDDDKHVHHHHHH
T1 sequence (chain, as listed by the source limits assumed): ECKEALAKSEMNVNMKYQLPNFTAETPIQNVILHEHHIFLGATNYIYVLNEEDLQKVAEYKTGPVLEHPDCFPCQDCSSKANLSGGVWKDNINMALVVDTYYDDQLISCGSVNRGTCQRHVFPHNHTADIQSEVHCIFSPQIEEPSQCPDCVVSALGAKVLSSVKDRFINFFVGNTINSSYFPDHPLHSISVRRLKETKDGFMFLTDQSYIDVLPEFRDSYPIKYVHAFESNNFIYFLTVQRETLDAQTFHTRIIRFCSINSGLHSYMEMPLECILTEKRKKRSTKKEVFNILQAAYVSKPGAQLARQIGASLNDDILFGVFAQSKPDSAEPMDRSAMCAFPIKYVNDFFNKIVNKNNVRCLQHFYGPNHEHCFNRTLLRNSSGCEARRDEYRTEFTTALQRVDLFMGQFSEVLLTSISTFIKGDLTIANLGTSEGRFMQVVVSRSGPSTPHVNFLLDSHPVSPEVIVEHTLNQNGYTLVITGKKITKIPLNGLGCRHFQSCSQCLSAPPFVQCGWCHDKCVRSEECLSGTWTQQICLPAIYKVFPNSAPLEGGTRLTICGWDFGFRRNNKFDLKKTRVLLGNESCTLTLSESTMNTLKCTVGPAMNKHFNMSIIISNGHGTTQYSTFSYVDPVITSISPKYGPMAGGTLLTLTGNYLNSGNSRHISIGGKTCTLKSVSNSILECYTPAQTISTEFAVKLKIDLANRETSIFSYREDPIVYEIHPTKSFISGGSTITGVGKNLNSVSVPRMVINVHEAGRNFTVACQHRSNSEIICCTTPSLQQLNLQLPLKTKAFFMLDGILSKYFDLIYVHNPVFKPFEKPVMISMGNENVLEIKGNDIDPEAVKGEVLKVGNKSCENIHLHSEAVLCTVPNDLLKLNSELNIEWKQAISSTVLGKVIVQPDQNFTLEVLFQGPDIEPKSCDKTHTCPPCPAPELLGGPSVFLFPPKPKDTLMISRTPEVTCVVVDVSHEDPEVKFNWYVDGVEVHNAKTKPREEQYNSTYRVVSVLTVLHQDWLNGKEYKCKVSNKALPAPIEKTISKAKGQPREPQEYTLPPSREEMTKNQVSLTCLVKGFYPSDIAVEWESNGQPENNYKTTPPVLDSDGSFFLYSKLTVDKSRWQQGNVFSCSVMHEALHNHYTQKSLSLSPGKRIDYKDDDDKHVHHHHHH
T3 sequence (chain, as listed by the source limits assumed): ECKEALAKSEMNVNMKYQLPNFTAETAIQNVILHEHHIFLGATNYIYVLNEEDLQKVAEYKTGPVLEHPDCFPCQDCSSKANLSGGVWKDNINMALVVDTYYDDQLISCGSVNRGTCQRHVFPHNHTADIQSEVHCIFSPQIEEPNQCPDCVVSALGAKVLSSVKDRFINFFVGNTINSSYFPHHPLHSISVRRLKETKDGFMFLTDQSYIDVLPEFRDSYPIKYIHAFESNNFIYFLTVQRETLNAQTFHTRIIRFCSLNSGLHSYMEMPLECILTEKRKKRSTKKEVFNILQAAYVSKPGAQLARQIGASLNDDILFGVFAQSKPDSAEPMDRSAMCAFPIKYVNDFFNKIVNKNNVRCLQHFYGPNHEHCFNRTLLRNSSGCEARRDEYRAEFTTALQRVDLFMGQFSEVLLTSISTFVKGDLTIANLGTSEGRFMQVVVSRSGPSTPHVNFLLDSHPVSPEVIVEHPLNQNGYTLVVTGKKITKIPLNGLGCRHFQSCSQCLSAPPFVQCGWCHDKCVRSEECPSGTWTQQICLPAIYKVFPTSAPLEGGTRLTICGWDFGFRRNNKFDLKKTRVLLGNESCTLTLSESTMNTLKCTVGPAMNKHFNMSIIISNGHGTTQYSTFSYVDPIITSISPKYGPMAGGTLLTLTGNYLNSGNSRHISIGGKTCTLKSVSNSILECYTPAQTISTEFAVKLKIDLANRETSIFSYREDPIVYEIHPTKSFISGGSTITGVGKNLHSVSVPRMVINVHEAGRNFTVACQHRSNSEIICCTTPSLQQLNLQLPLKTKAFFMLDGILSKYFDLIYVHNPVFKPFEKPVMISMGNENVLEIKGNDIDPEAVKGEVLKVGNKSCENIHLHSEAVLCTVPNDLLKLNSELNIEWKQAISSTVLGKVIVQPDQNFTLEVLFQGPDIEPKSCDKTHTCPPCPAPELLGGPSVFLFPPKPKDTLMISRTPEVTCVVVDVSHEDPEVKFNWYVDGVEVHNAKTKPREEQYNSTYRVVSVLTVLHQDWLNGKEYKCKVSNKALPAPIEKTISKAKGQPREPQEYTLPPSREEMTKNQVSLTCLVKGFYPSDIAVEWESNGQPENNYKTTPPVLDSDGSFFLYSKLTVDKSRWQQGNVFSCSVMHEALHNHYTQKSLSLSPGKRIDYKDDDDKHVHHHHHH

B1: D11-C27G3 (antibody, human IgG2, kappa, V domains shown)
VH: QVQLVQSGAEVKKPGSSVKVSCKASGYTFTSRYIHWVRQAPGQGLEWMGWIYPVTGDTYYREPFKGRVTITADKSTSTAYMELSSLRSEDTAVYYCARGYGAFYYWGQGTLVTVSS
VL: EIVLTQSPGTLSLSPGERATLSCSVSSSISSTNLHWYQQKPGQAPRLLIYGTSRLRSGIPDRFSGSGSGTDFTLTISRLEPEDFAVYYCQQWSSYPYSFGQGTKLEIKR
notes: Human engineered IgG2, kappa; also called D11-27G3
Human c-Met-Flis-Fc ECD [1]
  Average A450 nm: 0.284 A450 nm
Human c-Met-Flis-Fc ECD [2]
  Average A450 nm: 3.92 A450 nm
Rat c-Met-Flis-Fc ECD
  Kd: 2.7 nM
  koff: 0.00034 s⁻¹
  kon: 130000 M⁻¹ s⁻¹
Human c-Met-Flis-Fc ECD [3]
  Kd: 1.4 nM
  koff: 9e-05 s⁻¹
  kon: 64000 M⁻¹ s⁻¹
[4]
  Kd: 6.5 nM
  koff: 0.00032 s⁻¹
  kon: 50000 M⁻¹ s⁻¹
Human c-Met-Flis-Fc ECD [5]
  Average A450 nm: 1.44 A450 nm
Human c-Met-Flis-Fc ECD [6]
  Average A450 nm: 2.53 A450 nm
Human c-Met-Flis-Fc ECD [7]
  Average A450 nm: 0.271 A450 nm
Human c-Met-Flis-Fc ECD [8]
  Average A450 nm: 4 A450 nm
Human c-Met-Flis-Fc ECD [9]
  Average A450 nm: 4 A450 nm
Human c-Met-Flis-Fc ECD [10]
  Average A450 nm: 4 A450 nm
Human c-Met-Flis-Fc ECD [11]
  Average A450 nm: 4 A450 nm
Human c-Met-Flis-Fc ECD [12]
  Average A450 nm: 0.29 A450 nm
Human c-Met-Flis-Fc ECD [13]
  Average A450 nm: 0.46 A450 nm
Human c-Met-Flis-Fc ECD [14]
  Average A450 nm: 4 A450 nm

B2: C8-H241 (antibody, human IgG2, kappa, V domains shown)
VH: QVQLVQSGAEVKKPGASVKVSCKASGYTFTDYYMHWVRQAPGQGLEWMGRVNPNRRGTTYNQKFEGRVTMTTDTSTSTAYMELRSLRSDDTAVYYCARANWLDYWGQGTTVTVSS
VL: DIQMTQSPSSLSASVGDRVTITCSVSSSVSSIYLHWYQQKPGKAPKLLIYSTSNLASGVPSRFSGSGSGTDFTLTISSLQPEDFATYYCQVYSGYPLTFGGGTKVEIKR
notes: Named IgG4 kappa; also called Mab C8-H241
Human c-Met ECD-Fc-Flis [15]
  AVG A450 nm: 1.77 A450 nm
Human c-Met ECD-Fc-Flis [16]
  AVG A450 nm: 2.61 A450 nm
Human c-Met ECD-Fc-Flis [17]
  AVG A450 nm: 0.7 A450 nm
Human c-Met ECD-Fc-Flis [18]
  AVG A450 nm: 0.73 A450 nm
Human c-Met ECD-Fc-Flis [19]
  AVG A450 nm: 2.45 A450 nm
Human c-Met ECD-Fc-Flis [20]
  AVG A450 nm: 2.46 A450 nm
Human c-Met ECD-Fc-Flis [21]
  AVG A450 nm: 0.69 A450 nm
Human c-Met ECD-Fc-Flis [22]
  AVG A450 nm: 0.68 A450 nm
Human c-Met ECD-Fc-Flis [23]
  AVG A450 nm: 2.42 A450 nm
Human c-Met ECD-Fc-Flis [24]
  AVG A450 nm: 2.53 A450 nm
